Data as given in patent publication US20190382486A1 (Pfizer, published 2019).
Positions count from the first letter of the chain named.

T1: CD3ed (CD3 epsilon/delta fusion protein) (human)
T1 construct: Expressed in HEK293 and purified on His60 resin and by SEC; also called soluble human CD3ed antigen; hCD3ed
T1 chain: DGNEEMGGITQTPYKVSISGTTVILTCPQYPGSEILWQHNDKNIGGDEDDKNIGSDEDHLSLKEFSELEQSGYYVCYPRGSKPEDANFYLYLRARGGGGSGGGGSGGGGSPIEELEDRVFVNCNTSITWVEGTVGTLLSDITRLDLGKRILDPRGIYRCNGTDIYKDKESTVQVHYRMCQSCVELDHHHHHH

B1: 2B5v6-0517 (antibody, V domains shown)
VH: EVQLVESGGGLVQPGGSLRLSCAASGFTFSDYYMTWVRQAPGKGLEWVAFIRNQARGYTSDHQPSVKGRFTISRDNAKNSLYLQMNSLRAEDTAVYYCARDRPSYYVLDYWGQGTTVTVSS
VL: DIQMTQSPSSLSASVGDRVTITCTSSQSLFNVRSGKNYLAWYQQKPGKAPKLLIYWASTRESGVPSRFSGSGSGTDFTLTISSLQPEDFATYYCKQSYDLFTFGGGTKVEIK
notes: Tested as a monovalent IgG; also called 2B5-0517
B2: 2B5-0006 (2B5v6) (antibody, V domains shown)
VH: B1 VH with Q63N
VL: B1 VL with G35Q
notes: also called h2B5v6; parental 2B5v6
B3: 2B5v6-0538 (antibody, V domains shown)
VH: B1 VH with Q63N
VL: B1 VL with G35Q, T59D
notes: Tested as a monovalent IgG; also called 2B5-0538
B4: 2B5v6-0533 (antibody, V domains shown)
VH: B1 VH with Q63N
VL: B1 VL
notes: Tested as a monovalent IgG; also called 2B5-0533
B5: 2B5v6-0522 (antibody, V domains shown)
VH: B1 VH
VL: B1 VL with G35Q, T59D
notes: Tested as a monovalent IgG; also called 2B5-0522
B6: GUCY2C-1679 bispecific antibody (bispecific antibody)
chain 1: DIQLTQSPSSLSASVGDRVTITCRASESVDYYGSSLLQWYQQKPGKAPKLLIYAASKLASGVPSRFSGSGSGTDFTLTISSLQPEDFATYYCQQTRKAYTFGQGTKLEIKGGGSGGGGEVQLVESGGGLVQPGGSLRLSCAASGFTFSDYYMTWVRQAPGKGLEWVAFIRNQARGYTSDHNPSVKGRFTISRDNAKNSLYLQMNSLRAEDTAVYYCARDRPSYYVLDYWGQGTTVTVSSGCPPCPAPEAAGAPSVFLFPPKPKDTLMISRTPEVTCVVVDVSHEDPEVKFNWYVDGVEVHNAKTKPREEQYNSTYRVVSVLTVLHQDWLNGKEYKCKVSNKALPAPIEKTISKAKGQPREPQVCTLPPSREEMTKNQVSLWCLVKGFYPSDIAVEWESNGQPENNYKTTPPVLDSDGSFFLYSKLTVDKSRWQQGNVFSCSVMHEALHNHYTQKSLSLSPG
chain 2: DIQMTQSPSSLSASVGDRVTITCTSSQSLFNVRSGKNYLAWYQQKPGKAPKLLIYWASDRESGVPSRFSGSGSGTDFTLTISSLQPEDFATYYCKQSYDLFTFGGGTKVEIKGGGGSGGGGEVQLVESGGGLVQPGGSLRLSCAASGFTFSSYWMHWVRQAPGKGLEWIGEIKPSNELTNVHEKFKDRFTISVDKAKNSAYLQMNSLRAEDTAVYYCTRTITTTEGYWFFDVWGQGTLVTVSSGCPPCPAPEAAGAPSVFLFPPKPKDTLMISRTPEVTCVVVDVSHEDPEVKFNWYVDGVEVHNAKTKPREEQYNSTYRVVSVLTVLHQDWLNGKEYKCKVSNKALPAPIEKTISKAKGQPREPQVYTLPPCREEMTKNQVSLSCAVKGFYPSDIAVEWESNGQPENNYKTTPPVLDSDGSFFLVSKLTVDKSRWQQGNVFSCSVMHEALHNHYTQKSLSLSPG
notes: Bispecific diabody-Fc; also called GUCY2c bispecific with CD3 variant 2B5-1040
B7: GUCY2c-2B5 bispecific antibody (bispecific antibody, human IgG1)
chain 1: B6 chain 1 with S34T, L37M, A47P, K57N, L58V, A59E, A98V, Q172R
chain 2: DIQMTQSPSSLSASVGDRVTITCTSSQSLFNVRSRKNYLAWYQQKPGKAPKLLIYWASTRESGVPSRFSGSGSGTDFTLTISSLQPEDFATYYCKQSYDLFTFGGGTKVEIKGGGSGGGGEVQLVESGGGLVQPGGSLRLSCAASGYTFTSYWMHWVRQAPGKGLEWIGEIKPSNGLTNYIEKFKNRFTISVDKAKNSAYLQMNSLRAEDTAVYYCTRTITTTEGYWFFDVWGQGTLVTVSSGCPPCPAPEAAGAPSVFLFPPKPKDTLMISRTPEVTCVVVDVSHEDPEVKFNWYVDGVEVHNAKTKPREEQYNSTYRVVSVLTVLHQDWLNGKEYKCKVSNKALPAPIEKTISKAKGQPREPQVYTLPPCREEMTKNQVSLSCAVKGFYPSDIAVEWESNGQPENNYKTTPPVLDSDGSFFLVSKLTVDKSRWQQGNVFSCSVMHEALHNHYTQKSLSLSPG
notes: Bispecific diabody-Fc (knob-in-hole, effector null human IgG1 Fc); also called GUCY2c-0250
B8: GUCY2c-H2B4 bispecific antibody (bispecific antibody, human IgG1)
chain 1: B6 chain 1 with S34T, L37M, A47P, K57N, L58V, A59E, A98V, Q172R
chain 2: DIVMTQSPDSLAVSLGERATINCKSSQSLFNVRSRKNYLAWYQQKPGQPPKLLISWASTRESGVPDRFSGSGSGTDFTLTISSLQAEDVAVYYCKQSYDLFTFGSGTKLEIKGGGSGGGGEVQLVESGGGLVQPGGSLRLSCAASGYTFTSYWMHWVRQAPGKGLEWIGEIKPSNGLTNYIEKFKNRFTISVDKAKNSAYLQMNSLRAEDTAVYYCTRTITTTEGYWFFDVWGQGTLVTVSSGCPPCPAPEAAGAPSVFLFPPKPKDTLMISRTPEVTCVVVDVSHEDPEVKFNWYVDGVEVHNAKTKPREEQYNSTYRVVSVLTVLHQDWLNGKEYKCKVSNKALPAPIEKTISKAKGQPREPQVYTLPPCREEMTKNQVSLSCAVKGFYPSDIAVEWESNGQPENNYKTTPPVLDSDGSFFLVSKLTVDKSRWQQGNVFSCSVMHEALHNHYTQKSLSLSPG
notes: Bispecific diabody-Fc (knob-in-hole, effector null human IgG1 Fc)
B9: GUCY2C-1680 bispecific antibody (bispecific antibody)
chain 1: B6 chain 1
chain 2: B6 chain 2 with Q27E
notes: Bispecific diabody-Fc; also called GUCY2c bispecific with CD3 variant 2B5-1039
B10: GUCY2C-1608 (GUCY2c-2B5v6) bispecific antibody (bispecific antibody)
chain 1: B6 chain 1
chain 2: B6 chain 2 with G35Q, D59T
notes: Bispecific diabody-Fc
B11: GUCY2C-1678 bispecific antibody (bispecific antibody)
chain 1: B6 chain 1
chain 2: B6 chain 2 with S26D
notes: Bispecific diabody-Fc; also called GUCY2c bispecific with CD3 variant 2B5-1038

Tests used:
[1] = molecular target: T2, human CD3 epsilon subunit (CD3e), as cell surface CD3 on Jurkat cells and on naive human T cells (human, UniProt P07766 23-207); experiment: FACS on Jurkat cells expressing CD3, monovalent IgG
T2 construct: On the cells CD3 epsilon is part of the whole CD3/TCR complex
Protocol: All the mutants were generated as monovalent IgG antibodies using standard transient HEK293 expression followed by purification using Protein A column. The resulting clones were tested for binding to Jurkat cells expressing CD3 using FACS and self-association potential using AC-SINS as described above in Example 7. As shown in Table 16, five molecules with improved epivax score and reduced T-cell epitopes and retained affinity to CD3 were chosen to move forward and test in diabody-Fc format. The 2B5v6 variants with improved epivax scores were compared to the parental 2B5v6.
Target sequence in this assay (P07766 23-207 limits assumed): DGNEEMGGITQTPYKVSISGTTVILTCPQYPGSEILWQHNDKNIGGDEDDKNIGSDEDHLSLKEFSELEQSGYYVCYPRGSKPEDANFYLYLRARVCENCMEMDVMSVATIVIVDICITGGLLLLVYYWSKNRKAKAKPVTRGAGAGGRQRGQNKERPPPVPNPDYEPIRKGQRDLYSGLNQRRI

[2] = molecular target: T2, human CD3 epsilon subunit (CD3e), as …; experiment: FACS on Jurkat cells expressing CD3
[3] = molecular target: T2, human CD3 epsilon subunit (CD3e), as …; experiment: cell-based or functional assay
[4] = molecular target: T1, CD3ed (CD3 epsilon/delta fusion protein); experiment: SPR, recombinant human CD3
[5] = molecular target: T2, human CD3 epsilon subunit (CD3e), as …; experiment: flow cytometry titration on naive human T cells (PE-A Geo Mean against Ab in nM); Kd printed beside the legend
[6] = molecular target: T2, human CD3 epsilon subunit (CD3e), as …; experiment: flow cytometry, cell surface binding to human CD3 on naive human T cells
Text: Purified CD3 bispecific antibodies were titrated for cell surface binding to human CD3 on naïve human T cells purified from fresh human peripheral blood mononuclear cells (PBMCs), using the standard flow cytometry methods known in the art using BD LSRII Fortessa analyzer.

| Binder | EC50 [1] | In vitro Cytotoxicity [3] | Kd [4] | other results |
| --- | --- | --- | --- | --- |
| B1 | 9.9 nM |  |  |  |
| B2 |  |  |  | EC50 [2]: 9.8 nM |
| B3 | 9.2 nM |  |  |  |
| B4 | 6.1 nM |  |  |  |
| B5 | 8.6 nM |  |  |  |
| B6 |  | 0.194 nM | 72 nM |  |
| B7 |  |  |  | Kd [5]: 13.2 nM |
| B8 |  |  |  | Kd [5]: 8.18 nM |
| B9 |  | 0.385 nM | 78.6 nM |  |
| B10 |  | 0.772 nM | 128 nM | EC50 [6]: 35.4 nM |
| B11 |  | 0.247 nM | 63.5 nM |  |
